{
  "source": "patent US20210115153A1",
  "about": "(PEPTRON, published 2021)",
  "target": "T1, recombinant hMUC1-C (rhMUC1-C) protein (human, UniProt P15941 961-1152)",
  "T1 construct": "Expressed in E. coli Rosetta (not glycosylated), purified from inclusion bodies in 8 M urea over Ni-NTA; also called hMUC1-C terminal protein; not shown: C-terminal His-tag of vector pET-22b",
  "T1 sequence": "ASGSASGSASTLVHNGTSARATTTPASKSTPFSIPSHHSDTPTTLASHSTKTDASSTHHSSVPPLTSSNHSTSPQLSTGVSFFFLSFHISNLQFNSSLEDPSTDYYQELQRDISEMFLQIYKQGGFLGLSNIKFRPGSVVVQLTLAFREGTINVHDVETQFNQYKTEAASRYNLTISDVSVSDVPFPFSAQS",
  "assay": "ELISA of hybridoma culture supernatant on coated rhMUC1-C",
  "experimental": "The total amount of rhMUC1-C-specific IgG was measured by ELISA. A 96-well immunoplate was coated with 10 […] of rhMUC1-C protein (Example 2) and blocked with bovine serum albumin (BSA) in PBS-T (PBS containing 0.1% (v/v) Tween-20). The mouse serum immunized in Example 5, hybridoma cell culture supernatant, or purified antibody was diluted with PBS-T and cultured at room temperature for 2 hours. The plate was washed 3 times with PBS-T and cultured with a goat anti-mouse IgG HRP-conjugated secondary antibody for 1 hour. The plate was developed using TMB substrate solutions A and B (1:1 ratio) (Kirkegaard and Perry Laboratories, Gaithersburg, Md., USA), the absorbance was measured at 450 nm using a Spectra Max 250 microplate reader (Molecular Devices, Sunnyvale, USA), and a colorimetric assay was performed.\nThe spleen cells from mice immunized with rhMUC1-C protein in Example 5 were fused with SP2/0 myeloma cells (ATCC) using polyethylene glycol (PEG, Sigma-Aldrich). The fused cells were cultured and selected as a hypoxanthine-aminopterin-thymidine (HAT, Sigma-Aldrich) medium. The culture supernatant of the selected hybridoma cells was subjected to testing for binding to rhMUC1-C protein through ELISA and hybridoma cells, which were positive for binding, i.e., produced rhMUC1-C protein-specific antibody, were screened. […]",
  "data": [
    {"binder": "anti-hMUC1 monoclonal antibody purified from hybridoma hMUC1-1H7 (KCLRF-BP-00395) (antibody, V domains shown, also called anti-hMUC1 antibody; anti-hMUC1-C mouse antibody (1H7)) VH: EVQLQQSGAELAKPGASVKMSCKVSGYTFTSYWMHWVKQRPGQGLEWIGYINPGTGYIEYNQKFKDKATLTADKSSSTAYMQLSSLTSEDSAVYYCASSTAPFDYWGQGTTLTVSS VL: DIVITQSPSSMYASLGERVTITCKASQDIKSYLSWYQQKPWKSPKTLIYYATRLADGVPSRFSGSGSGQDYSLTISSLESDDTATYYCLQYDESPYTFGGGTKLEIKR", "values": [
      {"measurement": "binding result", "result": "binds"}
    ]}
  ]
}
